In publication PMC9204302, “Novel Pharmacology Following Heteromerization of the Angiotensin II Type 2 Receptor and the Bradykinin Type 2 Receptor” (Frontiers in Endocrinology, 2022):

T1: Venus-tagged B2 receptor (B2-Venus) (human, UniProt P30411 1-391)
T1 construct: made by replacing the Rluc8 coding region of B2-Rluc8 with Venus cDNA; C-terminal end of the tag follows from the parent B2-Rluc8; source: HEK293FT, transiently transfected, in live cells; not shown: Venus, C-terminal, kept
T1 sequence (looked up): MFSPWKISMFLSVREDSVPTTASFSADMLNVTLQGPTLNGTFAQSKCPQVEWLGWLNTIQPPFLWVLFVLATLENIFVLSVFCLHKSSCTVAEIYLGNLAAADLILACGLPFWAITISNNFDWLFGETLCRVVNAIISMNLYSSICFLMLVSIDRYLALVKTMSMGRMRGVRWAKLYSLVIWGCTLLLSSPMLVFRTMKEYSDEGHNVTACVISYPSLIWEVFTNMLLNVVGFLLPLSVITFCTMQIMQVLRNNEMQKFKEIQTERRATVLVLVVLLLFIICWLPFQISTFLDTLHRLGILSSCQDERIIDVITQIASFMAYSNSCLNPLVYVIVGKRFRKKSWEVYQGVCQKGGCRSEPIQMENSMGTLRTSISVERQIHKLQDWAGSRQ

B1: Rluc8-tagged GRK2 (GRK2-Rluc8) (enzyme, UniProt P25098 1-689, looked up)
chain: MADLEAVLADVSYLMAMEKSKATPAARASKKILLPEPSIRSVMQKYLEDRGEVTFEKIFSQKLGYLLFRDFCLNHLEEARPLVEFYEEIKKYEKLETEEERVARSREIFDSYIMKELLACSHPFSKSATEHVQGHLGKKQVPPDLFQPYIEEICQNLRGDVFQKFIESDKFTRFCQWKNVELNIHLTMNDFSVHRIIGRGGFGEVYGCRKADTGKMYAMKCLDKKRIKMKQGETLALNERIMLSLVSTGDCPFIVCMSYAFHTPDKLSFILDLMNGGDLHYHLSQHGVFSEADMRFYAAEIILGLEHMHNRFVVYRDLKPANILLDEHGHVRISDLGLACDFSKKKPHASVGTHGYMAPEVLQKGVAYDSSADWFSLGCMLFKLLRGHSPFRQHKTKDKHEIDRMTLTMAVELPDSFSPELRSLLEGLLQRDVNRRLGCLGRGAQEVKESPFFRSLDWQMVFLQKYPPPLIPPRGEVNAADAFDIGSFDEEDTKGIKLLDSDQELYRNFPLTISERWQQEVAETVFDTINAETDRLEARKKAKNKQLGHEEDYALGKDCIMHGYMSKMGNPFLTQWQRRYFYLFPNRLEWRGEGEAPQSLLTMEEIQSVEETQIKERKCLLLKIRGGKQFILQCDSDPELVQWKKELRDAYREAQQLVQRVPKMKNKPRSPVVELSKVPLVQRGSANGL
notes: GPCR kinase 2 (GRK2); construct synthesized by GeneArt; also called GPCR kinase 2; source: HEK293FT, transiently transfected, in live cells

Tests used:
[1] = biological target: B2 receptor tagged with Rluc8 (B2-Rluc8) (human) (UniProt P30411); assay: FRET or BRET; BRET1/eBRET in live HEK293FT cells, one BRET-tagged receptor and one BRET-tagged interacting protein coexpressed, no second receptor; ligand-induced BRET after AngII or BK, 37°C
[2] = biological target: T1, Venus-tagged B2 receptor (B2-Venus); assay: as above; details: partners not purified

Molecule | pEC50 of BK (ligand-induced BRET) [1] | pEC50 of BK (ligand-induced BRET) [2]
NES-Venus-mGsq (Venus-tagged mini G protein) | 7.73 | –
B1 | – | 7.35
